Measured values published in patent US20230272029A1, “CO-AGONISTS AT GLP-1 AND GIP RECEPTORS SUITABLE FOR ORAL DELIVERY” (Novo Nordisk A/S, priority 2020, published 2023).
Starred links: 1 amine or outer side, 2 acyl side, 3 side chain; linkers in the order of their positions; H or OH if unused. Non-standard residues stand in square brackets, D forms with d. Groups on a side chain read outwards from the residue. No end group written: not given here. *: point of attachment. C20 diacid = O=C(O)CCCCCCCCCCCCCCCCCCC(=O)*; C18 diacid = O=C(O)CCCCCCCCCCCCCCCCC(=O)*; γGlu = O=C(O)[C@H](CCC(=O)[*:2])N[*:1]; εLys = N[C@@H](CCCCN[*:1])C(=O)[*:2]; AEEA = NCCOCCOCC(=O)O; Aib = CC(C)(N)C(=O)O

T1: human GIP receptor (human, UniProt P48546 22-466)
T1 sequence (looked up): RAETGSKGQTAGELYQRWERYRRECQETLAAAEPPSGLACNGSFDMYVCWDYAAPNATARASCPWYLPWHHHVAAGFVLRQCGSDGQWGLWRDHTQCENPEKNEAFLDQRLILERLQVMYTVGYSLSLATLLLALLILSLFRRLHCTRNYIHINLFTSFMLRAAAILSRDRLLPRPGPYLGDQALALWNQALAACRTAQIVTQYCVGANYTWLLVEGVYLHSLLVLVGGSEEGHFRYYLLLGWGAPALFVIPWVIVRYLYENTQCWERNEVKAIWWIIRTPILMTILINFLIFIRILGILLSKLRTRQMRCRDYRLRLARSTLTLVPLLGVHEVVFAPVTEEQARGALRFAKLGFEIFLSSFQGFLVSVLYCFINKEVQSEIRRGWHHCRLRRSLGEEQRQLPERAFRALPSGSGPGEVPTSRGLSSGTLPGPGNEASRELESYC


Tests used:
[1] = target: human GLP-1 receptor (human, UniProt P43220 24-463); assay: cell-based or functional assay
[2] = target: T1, human GIP receptor; assay: cell-based or functional assay

Binder | hGLP-1R, CRE Luc 0% HSA EC50 (pM) [1] [pM] | hGLP-1R, CRE Luc 1% HSA EC50 (pM) [1] [pM] | hGIPR, CRE Luc 1% HSA EC50 (pM) [2] [pM] | hGIPR, CRE Luc 0% HSA EC50 (pM) [2] [pM]
Y[Aib]EGTFTSDYSIYLEK([AEEA-AEEA-γGlu-C18 diacid])QAAREFIEWLLAGGPSSGAPPPS-OH (N-terminus assumed; SMILES CC[C@H](C)[C@H](NC(=O)[C@H](Cc1ccccc1)NC(=O)[C@H](CCC(=O)O)NC(=O)[C@H](CCCNC(=N)N)NC(=O)[C@H](C)NC(=O)[C@H](C)NC(=O)[C@H](CCC(N)=O)NC(=O)[C@H](CCCCNC(=O)COCCOCCNC(=O)COCCOCCNC(=O)CC[C@H](NC(=O)CCCCCCCCCCCCCCCCC(=O)O)C(=O)O)NC(=O)[C@H](CCC(=O)O)NC(=O)[C@H](CC(C)C)NC(=O)[C@H](Cc1ccc(O)cc1)NC(=O)[C@@H](NC(=O)[C@H](CO)NC(=O)[C@H](Cc1ccc(O)cc1)NC(=O)[C@H](CC(=O)O)NC(=O)[C@H](CO)NC(=O)[C@@H](NC(=O)[C@H](Cc1ccccc1)NC(=O)[C@@H](NC(=O)CNC(=O)[C@H](CCC(=O)O)NC(=O)C(C)(C)NC(=O)[C@@H](N)Cc1ccc(O)cc1)[C@@H](C)O)[C@@H](C)O)[C@@H](C)CC)C(=O)N[C@@H](CCC(=O)O)C(=O)N[C@@H](Cc1c[nH]c2ccccc12)C(=O)N[C@@H](CC(C)C)C(=O)N[C@@H](CC(C)C)C(=O)N[C@@H](C)C(=O)NCC(=O)NCC(=O)N1CCC[C@H]1C(=O)N[C@@H](CO)C(=O)N[C@@H](CO)C(=O)NCC(=O)N[C@@H](C)C(=O)N1CCC[C@H]1C(=O)N1CCC[C@H]1C(=O)N1CCC[C@H]1C(=O)N[C@@H](CO)C(=O)O) [Compound No. 10] | 3.9 | 940 | 1750 | –
Y[Aib]EGTFTSDYSIYLEK([εLys-εLys-γGlu-C18 diacid])QAAREFINWLLAGGPSSGAPPPS-OH (N-terminus assumed; SMILES CC[C@H](C)[C@H](NC(=O)[C@H](Cc1ccccc1)NC(=O)[C@H](CCC(=O)O)NC(=O)[C@H](CCCNC(=N)N)NC(=O)[C@H](C)NC(=O)[C@H](C)NC(=O)[C@H](CCC(N)=O)NC(=O)[C@H](CCCCNC(=O)[C@@H](N)CCCCNC(=O)[C@@H](N)CCCCNC(=O)CC[C@H](NC(=O)CCCCCCCCCCCCCCCCC(=O)O)C(=O)O)NC(=O)[C@H](CCC(=O)O)NC(=O)[C@H](CC(C)C)NC(=O)[C@H](Cc1ccc(O)cc1)NC(=O)[C@@H](NC(=O)[C@H](CO)NC(=O)[C@H](Cc1ccc(O)cc1)NC(=O)[C@H](CC(=O)O)NC(=O)[C@H](CO)NC(=O)[C@@H](NC(=O)[C@H](Cc1ccccc1)NC(=O)[C@@H](NC(=O)CNC(=O)[C@H](CCC(=O)O)NC(=O)C(C)(C)NC(=O)[C@@H](N)Cc1ccc(O)cc1)[C@@H](C)O)[C@@H](C)O)[C@@H](C)CC)C(=O)N[C@@H](CC(N)=O)C(=O)N[C@@H](Cc1c[nH]c2ccccc12)C(=O)N[C@@H](CC(C)C)C(=O)N[C@@H](CC(C)C)C(=O)N[C@@H](C)C(=O)NCC(=O)NCC(=O)N1CCC[C@H]1C(=O)N[C@@H](CO)C(=O)N[C@@H](CO)C(=O)NCC(=O)N[C@@H](C)C(=O)N1CCC[C@H]1C(=O)N1CCC[C@H]1C(=O)N1CCC[C@H]1C(=O)N[C@@H](CO)C(=O)O) [Compound No. 11] | 3.3 | 132 | 450 | 9.9
Y[Aib]EGTFTSDYSIYLEEQAARK([εLys-εLys-γGlu-C18 diacid])FINWLLAGGPSSGAPPPS-OH (N-terminus assumed; SMILES CC[C@H](C)[C@H](NC(=O)[C@H](Cc1ccccc1)NC(=O)[C@H](CCCCNC(=O)[C@@H](N)CCCCNC(=O)[C@@H](N)CCCCNC(=O)CC[C@H](NC(=O)CCCCCCCCCCCCCCCCC(=O)O)C(=O)O)NC(=O)[C@H](CCCNC(=N)N)NC(=O)[C@H](C)NC(=O)[C@H](C)NC(=O)[C@H](CCC(N)=O)NC(=O)[C@H](CCC(=O)O)NC(=O)[C@H](CCC(=O)O)NC(=O)[C@H](CC(C)C)NC(=O)[C@H](Cc1ccc(O)cc1)NC(=O)[C@@H](NC(=O)[C@H](CO)NC(=O)[C@H](Cc1ccc(O)cc1)NC(=O)[C@H](CC(=O)O)NC(=O)[C@H](CO)NC(=O)[C@@H](NC(=O)[C@H](Cc1ccccc1)NC(=O)[C@@H](NC(=O)CNC(=O)[C@H](CCC(=O)O)NC(=O)C(C)(C)NC(=O)[C@@H](N)Cc1ccc(O)cc1)[C@@H](C)O)[C@@H](C)O)[C@@H](C)CC)C(=O)N[C@@H](CC(N)=O)C(=O)N[C@@H](Cc1c[nH]c2ccccc12)C(=O)N[C@@H](CC(C)C)C(=O)N[C@@H](CC(C)C)C(=O)N[C@@H](C)C(=O)NCC(=O)NCC(=O)N1CCC[C@H]1C(=O)N[C@@H](CO)C(=O)N[C@@H](CO)C(=O)NCC(=O)N[C@@H](C)C(=O)N1CCC[C@H]1C(=O)N1CCC[C@H]1C(=O)N1CCC[C@H]1C(=O)N[C@@H](CO)C(=O)O) [Compound No. 37] | 2.7 | 94.6 | 298 | 11.2
Y[Aib]EGTFTSDYSIYLEK([εLys-εLys-γGlu-C20 diacid])QAAQEFVNWLLAGGPSSGAPPPS-NH2 (N-terminus assumed; SMILES CC[C@H](C)[C@H](NC(=O)[C@H](CO)NC(=O)[C@H](Cc1ccc(O)cc1)NC(=O)[C@H](CC(=O)O)NC(=O)[C@H](CO)NC(=O)[C@@H](NC(=O)[C@H](Cc1ccccc1)NC(=O)[C@@H](NC(=O)CNC(=O)[C@H](CCC(=O)O)NC(=O)C(C)(C)NC(=O)[C@@H](N)Cc1ccc(O)cc1)[C@@H](C)O)[C@@H](C)O)C(=O)N[C@@H](Cc1ccc(O)cc1)C(=O)N[C@@H](CC(C)C)C(=O)N[C@@H](CCC(=O)O)C(=O)N[C@@H](CCCCNC(=O)[C@@H](N)CCCCNC(=O)[C@@H](N)CCCCNC(=O)CC[C@H](NC(=O)CCCCCCCCCCCCCCCCCCC(=O)O)C(=O)O)C(=O)N[C@@H](CCC(N)=O)C(=O)N[C@@H](C)C(=O)N[C@@H](C)C(=O)N[C@@H](CCC(N)=O)C(=O)N[C@@H](CCC(=O)O)C(=O)N[C@@H](Cc1ccccc1)C(=O)N[C@H](C(=O)N[C@@H](CC(N)=O)C(=O)N[C@@H](Cc1c[nH]c2ccccc12)C(=O)N[C@@H](CC(C)C)C(=O)N[C@@H](CC(C)C)C(=O)N[C@@H](C)C(=O)NCC(=O)NCC(=O)N1CCC[C@H]1C(=O)N[C@@H](CO)C(=O)N[C@@H](CO)C(=O)NCC(=O)N[C@@H](C)C(=O)N1CCC[C@H]1C(=O)N1CCC[C@H]1C(=O)N1CCC[C@H]1C(=O)N[C@@H](CO)C(N)=O)C(C)C) [Compound No. 1] | 7.8 | 1660 | 172 | 2.8
Y[Aib]EGTFTSDYSIYLEK([εLys-εLys-γGlu-C18 diacid])QAAREFIEWLLRGGPSSGAPPPS-OH (N-terminus assumed; SMILES CC[C@H](C)[C@H](NC(=O)[C@H](Cc1ccccc1)NC(=O)[C@H](CCC(=O)O)NC(=O)[C@H](CCCNC(=N)N)NC(=O)[C@H](C)NC(=O)[C@H](C)NC(=O)[C@H](CCC(N)=O)NC(=O)[C@H](CCCCNC(=O)[C@@H](N)CCCCNC(=O)[C@@H](N)CCCCNC(=O)CC[C@H](NC(=O)CCCCCCCCCCCCCCCCC(=O)O)C(=O)O)NC(=O)[C@H](CCC(=O)O)NC(=O)[C@H](CC(C)C)NC(=O)[C@H](Cc1ccc(O)cc1)NC(=O)[C@@H](NC(=O)[C@H](CO)NC(=O)[C@H](Cc1ccc(O)cc1)NC(=O)[C@H](CC(=O)O)NC(=O)[C@H](CO)NC(=O)[C@@H](NC(=O)[C@H](Cc1ccccc1)NC(=O)[C@@H](NC(=O)CNC(=O)[C@H](CCC(=O)O)NC(=O)C(C)(C)NC(=O)[C@@H](N)Cc1ccc(O)cc1)[C@@H](C)O)[C@@H](C)O)[C@@H](C)CC)C(=O)N[C@@H](CCC(=O)O)C(=O)N[C@@H](Cc1c[nH]c2ccccc12)C(=O)N[C@@H](CC(C)C)C(=O)N[C@@H](CC(C)C)C(=O)N[C@@H](CCCNC(=N)N)C(=O)NCC(=O)NCC(=O)N1CCC[C@H]1C(=O)N[C@@H](CO)C(=O)N[C@@H](CO)C(=O)NCC(=O)N[C@@H](C)C(=O)N1CCC[C@H]1C(=O)N1CCC[C@H]1C(=O)N1CCC[C@H]1C(=O)N[C@@H](CO)C(=O)O) [Compound No. 12] | 4 | 54.4 | 71.5 | 9
Y[Aib]EGTFTSDYSIYLEK([εLys-εLys-γGlu-C18 diacid])QAAREFIEWLLRGGPESGAPPPS-OH (N-terminus assumed; SMILES CC[C@H](C)[C@H](NC(=O)[C@H](Cc1ccccc1)NC(=O)[C@H](CCC(=O)O)NC(=O)[C@H](CCCNC(=N)N)NC(=O)[C@H](C)NC(=O)[C@H](C)NC(=O)[C@H](CCC(N)=O)NC(=O)[C@H](CCCCNC(=O)[C@@H](N)CCCCNC(=O)[C@@H](N)CCCCNC(=O)CC[C@H](NC(=O)CCCCCCCCCCCCCCCCC(=O)O)C(=O)O)NC(=O)[C@H](CCC(=O)O)NC(=O)[C@H](CC(C)C)NC(=O)[C@H](Cc1ccc(O)cc1)NC(=O)[C@@H](NC(=O)[C@H](CO)NC(=O)[C@H](Cc1ccc(O)cc1)NC(=O)[C@H](CC(=O)O)NC(=O)[C@H](CO)NC(=O)[C@@H](NC(=O)[C@H](Cc1ccccc1)NC(=O)[C@@H](NC(=O)CNC(=O)[C@H](CCC(=O)O)NC(=O)C(C)(C)NC(=O)[C@@H](N)Cc1ccc(O)cc1)[C@@H](C)O)[C@@H](C)O)[C@@H](C)CC)C(=O)N[C@@H](CCC(=O)O)C(=O)N[C@@H](Cc1c[nH]c2ccccc12)C(=O)N[C@@H](CC(C)C)C(=O)N[C@@H](CC(C)C)C(=O)N[C@@H](CCCNC(=N)N)C(=O)NCC(=O)NCC(=O)N1CCC[C@H]1C(=O)N[C@@H](CCC(=O)O)C(=O)N[C@@H](CO)C(=O)NCC(=O)N[C@@H](C)C(=O)N1CCC[C@H]1C(=O)N1CCC[C@H]1C(=O)N1CCC[C@H]1C(=O)N[C@@H](CO)C(=O)O) [Compound No. 13] | 7.4 | 204 | 257 | 13.9
